Data reported in publication PMC7250496 (Journal of medicinal chemistry, 2020).
Square brackets hold non-standard residues; d marks the D form. Dap = NC[C@H](N)C(=O)O

B1: c[Pro-Arg-Phe-Phe-Dap-Val-Phe-DPro] (peptide)
chain: cyclo(PRFF[Dap]VF[dP])
B2: c[Pro-His-Phe-Phe-Asn-Ala-Phe-DPro] (peptide)
peptide: cyclo(PHFFNAF[dP])
B3: c[Pro-Arg-Phe-Phe-Asn-Val-Phe-DPro] (peptide)
peptide: cyclo(PRFFNVF[dP])
B4: c[Pro-Cys-Phe-Phe-Asn-Ala-Phe-DPro] (peptide)
peptide: cyclo(PCFFNAF[dP])
B5: c[Pro-Arg-Tyr-Phe-Asn-Ala-Phe-DPro] (peptide)
peptide: cyclo(PRYFNAF[dP])
B6: c[Pro-His-Phe-Phe-Dap-Ala-Phe-DPro] (peptide)
chain: cyclo(PHFF[Dap]AF[dP])
B7: c[Pro-Arg-Tyr-Phe-Dap-Ala-Phe-DPro] (peptide)
chain: cyclo(PRYF[Dap]AF[dP])
B8: c[Pro-Cys-Phe-Phe-Dap-Ala-Phe-DPro] (peptide)
chain: cyclo(PCFF[Dap]AF[dP])
B9: c[Pro-Arg-Phe-Phe-Asn-Ala-Phe-DPro] (peptide)
peptide: cyclo(PRFFNAF[dP])
B10: c[Pro-Arg-Phe-Phe-Dap-Ala-Phe-DPro] (peptide)
chain: PRFFXAFP
modifications: Dap (diaminopropionic acid) at position 5 (X in the letters); DPro at position 8; head-to-tail cyclised (macrocycle)

Target: T1, mouse melanocortin 1 receptor (mouse, UniProt Q01727 1-315)
Assay: cell-based or functional assay

T1 sequence (Q01727 whole entry): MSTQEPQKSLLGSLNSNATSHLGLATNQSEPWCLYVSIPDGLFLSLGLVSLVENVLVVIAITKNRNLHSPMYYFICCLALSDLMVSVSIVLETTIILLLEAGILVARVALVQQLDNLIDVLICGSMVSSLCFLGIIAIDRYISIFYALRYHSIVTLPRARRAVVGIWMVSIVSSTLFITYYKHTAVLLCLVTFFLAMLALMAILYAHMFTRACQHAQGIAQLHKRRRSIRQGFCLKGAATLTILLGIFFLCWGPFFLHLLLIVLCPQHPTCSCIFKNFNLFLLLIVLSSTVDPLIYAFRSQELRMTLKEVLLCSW

agonist activity, cAMP AlphaScreen, HEK293 cells stably expressing the receptor | Binder
79 % of maximal NDP-MSH response at 100 μM | B1
23 % of maximal NDP-MSH response at 100 μM | B2
23 % of maximal NDP-MSH response at 100 μM | B3
46 % of maximal NDP-MSH response at 100 μM | B4
> 100 µM | B5
56 % of maximal NDP-MSH response at 100 μM | B6
48 % of maximal NDP-MSH response at 100 μM | B7
4 µM | B8

Target: T2, mouse melanocortin 3 receptor (mouse, UniProt P33033 1-323)
Assay: cell-based or functional assay

T2 sequence (P33033 whole entry): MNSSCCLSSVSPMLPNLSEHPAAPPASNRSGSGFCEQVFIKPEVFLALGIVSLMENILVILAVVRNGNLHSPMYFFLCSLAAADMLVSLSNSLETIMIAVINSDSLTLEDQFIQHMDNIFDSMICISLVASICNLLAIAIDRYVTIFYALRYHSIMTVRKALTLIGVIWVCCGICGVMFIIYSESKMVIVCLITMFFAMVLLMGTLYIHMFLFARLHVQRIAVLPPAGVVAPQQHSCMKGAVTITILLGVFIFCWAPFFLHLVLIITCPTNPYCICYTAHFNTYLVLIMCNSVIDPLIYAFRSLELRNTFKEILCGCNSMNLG

agonist activity, cAMP AlphaScreen, HEK293 cells stably expressing the receptor | Binder
27 % of maximal NDP-MSH response at 100 μM | B1
> 100 µM | B2
> 100 µM | B3
> 100 µM | B4
> 100 µM | B5
> 100 µM | B6
> 100 µM | B7
29 % of maximal NDP-MSH response at 100 μM | B8

Target: T3, mouse melanocortin 4 receptor (mouse, UniProt P56450 1-332)
Assay: cell-based or functional assay

T3 sequence (P56450 whole entry): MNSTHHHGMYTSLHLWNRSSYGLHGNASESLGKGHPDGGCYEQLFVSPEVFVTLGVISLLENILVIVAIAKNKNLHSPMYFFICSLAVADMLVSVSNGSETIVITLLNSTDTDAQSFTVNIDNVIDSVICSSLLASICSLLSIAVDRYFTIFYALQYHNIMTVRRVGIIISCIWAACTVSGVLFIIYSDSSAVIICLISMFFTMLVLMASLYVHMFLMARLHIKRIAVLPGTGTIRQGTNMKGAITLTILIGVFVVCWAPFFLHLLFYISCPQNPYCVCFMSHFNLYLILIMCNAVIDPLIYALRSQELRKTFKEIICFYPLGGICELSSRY

agonist activity, cAMP AlphaScreen, HEK293 cells stably expressing the receptor | Binder
37 % of maximal NDP-MSH response at 100 μM | B1
> 100 µM | B2
16 % of maximal NDP-MSH response at 100 μM | B3
> 100 µM | B4
> 100 µM | B5
> 100 µM | B6
> 100 µM | B7
42 % of maximal NDP-MSH response at 100 μM | B8

Target: T4, mouse melanocortin 5 receptor (mouse, UniProt P41149 1-325)
Assay: cell-based or functional assay

T4 sequence (P41149 whole entry): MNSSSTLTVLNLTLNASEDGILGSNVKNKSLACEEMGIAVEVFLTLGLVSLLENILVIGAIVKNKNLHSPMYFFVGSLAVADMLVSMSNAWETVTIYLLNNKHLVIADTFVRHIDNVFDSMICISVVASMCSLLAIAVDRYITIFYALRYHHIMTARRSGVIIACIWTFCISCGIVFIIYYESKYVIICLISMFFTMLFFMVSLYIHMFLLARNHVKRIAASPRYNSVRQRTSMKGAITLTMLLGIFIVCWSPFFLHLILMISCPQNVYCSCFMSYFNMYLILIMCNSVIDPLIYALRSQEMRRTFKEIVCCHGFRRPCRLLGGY

agonist activity, cAMP AlphaScreen, HEK293 cells stably expressing the receptor | Binder
> 100 µM | B1
> 100 µM | B2
> 100 µM | B3
> 100 µM | B6
> 100 µM | B7
> 100 µM | B8

Target: T1, mouse melanocortin 1 receptor
Assay: radioligand binding

IC50 | Binder
8 µM | B1
9 µM | B9
> 100 µM | B2
15 µM | B3
24.6 µM | B4
> 100 µM | B5
25 µM | B6
18 µM | B7
5.2 µM | B10
33 µM | B8

Target: T2, mouse melanocortin 3 receptor
Assay: radioligand binding

IC50 | Binder
10 µM | B1
> 100 µM | B2
53 µM | B3
> 100 µM | B4
> 100 µM | B5
15 µM | B6
28 µM | B7
3.2 µM | B10
49 µM | B8

Target: T3, mouse melanocortin 4 receptor
Assay: radioligand binding

IC50 | Binder
6.7 µM | B2
0.038 µM | B3
1.9 µM | B4
2 µM | B5
1 µM | B6
0.134 µM | B7
10 µM | B8

Target: T4, mouse melanocortin 5 receptor
Assay: radioligand binding

IC50 | Binder
2.7 µM | B1
> 100 µM | B2
29 µM | B3
> 100 µM | B4
> 100 µM | B5
12 µM | B6
36 µM | B7
1.7 µM | B10
> 100 µM | B8

Target: human melanocortin 4 receptor (human, UniProt P32245 1-332)
Assay: radioligand binding

Chain of human melanocortin 4 receptor (P32245 whole entry): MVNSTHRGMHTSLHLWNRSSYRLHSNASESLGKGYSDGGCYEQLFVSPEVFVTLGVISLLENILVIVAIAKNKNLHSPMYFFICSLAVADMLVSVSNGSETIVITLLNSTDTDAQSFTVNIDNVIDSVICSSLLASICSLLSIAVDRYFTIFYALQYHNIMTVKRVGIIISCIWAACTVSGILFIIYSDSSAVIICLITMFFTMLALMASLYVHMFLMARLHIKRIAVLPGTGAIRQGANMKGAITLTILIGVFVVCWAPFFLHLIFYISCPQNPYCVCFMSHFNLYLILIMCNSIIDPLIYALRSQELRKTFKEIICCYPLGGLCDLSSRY

IC50 | Binder
0.0322 µM | B1
22 µM | B2
0.25 µM | B3
19.3 µM | B4
14.3 µM | B5
2.7 µM | B6
1.02 µM | B7
15.7 µM | B8
